Blank lines part the entries; values can stand above or below the molecule they belong to.
How the values were obtained:
Format in all cases: biochemical
[1] = ω-transaminase enzyme activity assay, reverse direction (6-aminohexanoate to adipate semialdehyde); conditions: cell free extract, 10 mM 6-aminohexanoate, 10 mM pyruvate, pH 7.5, 25° C., 24 h, RP-HPLC, against the empty vector control
Procedure: (§1) A nucleotide sequence encoding a His-tag was added to the nucleic acid sequences from Chromobacterium violaceum, Pseudomonas aeruginosa, Pseudomonas syringae, Rhodobacter sphaeroides, and Vibrio fluvialis encoding the ω-transaminases of SEQ ID NOs: 7, 8, 9, 10 and 12, respectively (see FIG. 6) such that N-terminal HIS tagged ω-transaminases could be produced. Each of the resulting modified genes was cloned into a pET21a expression vector under control of the T7 promoter and each expression vector was transformed into a BL21[DE3] E. coli host. The resulting recombinant E. coli strains were cultivated at 37° C. in a 250 mL shake flask culture containing 50 mL LB media and antibiotic selection pressure, with shaking at 230 rpm. Each culture was induced overnight at 16° C. using 1 mM IPTG.
(§2) The pellet from each induced shake flask culture was harvested via centrifugation. Each pellet was resuspended and lysed via sonication. The cell debris was separated from the supernatant via centrifugation and the cell free extract was used immediately in enzyme activity assays.
Enzyme activity assays in the reverse direction (i.e., 6-aminohexanoate to adipate semialdehyde) were performed in a buffer composed of a final concentration of 50 mM HEPES buffer (pH=7.5), 10 mM 6-aminohexanoate, 10 mM pyruvate and 100 μM pyridoxyl 5′ phosphate. Each enzyme activity assay reaction was initiated by adding cell free extract of the ω-transaminase gene product or the empty vector control to the assay buffer containing the 6-aminohexanoate and incubated at 25° C. for 24 h, with shaking at 250 rpm. The formation of L-alanine from pyruvate was quantified via RP-HPLC.

[2] = ω-transaminase enzyme activity assay, forward direction (adipate semialdehyde to 6-aminohexanoate); conditions: cell free extract, 10 mM adipate semialdehyde, 10 mM L-alanine, pH 7.5, 25° C., 4 h, RP-HPLC, against the empty vector control
Procedure: as §1, §2
Enzyme activity in the forward direction (i.e., adipate semialdehyde to 6-aminohexanoate) was confirmed for the transaminases of SEQ ID NO 7, SEQ ID NO 8, SEQ ID NO 9, SEQ ID NO 10 and SEQ ID NO 12. Enzyme activity assays were performed in a buffer composed of a final concentration of 50 mM HEPES buffer (pH=7.5), 10 mM adipate semialdehyde, 10 mM L-alanine and 100 μM pyridoxyl 5′ phosphate. Each enzyme activity assay reaction was initiated by adding a cell free extract of the ω-transaminase gene product or the empty vector control to the assay buffer containing the adipate semialdehyde and incubated at 25° C. for 4 h, with shaking at 250 rpm. The formation of pyruvate was quantified via RP-HPLC.

[3] = carboxylate reductase enzyme activity assay (adipate semialdehyde to hexanedial); conditions: purified enzyme enhanced by the gene product of sfp, 2 mM adipate semialdehyde, pH 7.5, room temperature, 20 min, against the empty vector control
Procedure: The N-terminal His-tagged carboxylate reductase of SEQ ID NO 6 (see Example 2 and FIG. 6) was assayed using adipate semialdehyde as substrate. The enzyme activity assay was performed in triplicate in a buffer composed of a final concentration of 50 mM HEPES buffer (pH=7.5), 2 mM adipate semialdehyde, 10 mM MgCl2, 1 mM ATP and 1 mM NADPH. The enzyme activity assay reaction was initiated by adding purified carboxylate reductase and phosphopantetheine transferase or the empty vector control to the assay buffer containing the adipate semialdehyde and then incubated at room temperature for 20 min. The consumption of NADPH was monitored by absorbance at 340 nm.

ω-transaminase activity for converting 6-aminohexanoate to adipate semialdehyde (formation of L-alanine from pyruvate) [1]: accepted 6-aminohexanoate as substrate
Molecule: SEQ ID NO 10: Rhodobacter sphaeroides ω-transaminase, Genbank Accession No. ABA81135.1, N-terminal HIS tagged
ω-transaminase activity for converting adipate semialdehyde to 6-aminohexanoate (formation of pyruvate from L-alanine) [2]: accepted adipate semialdehyde as substrate

ω-transaminase activity for converting 6-aminohexanoate to adipate semialdehyde (formation of L-alanine from pyruvate) [1]: accepted 6-aminohexanoate as substrate
B1: SEQ ID NO 9: Pseudomonas syringae ω-transaminase, Genbank Accession No. AAY39893.1, N-terminal HIS tagged (protein, listed as Pseudomonas syringae)
chain: MSANNPQTLEWQALSSEHHLAPFSDYKQLKEKGPRIITRAEGVYLWDSEGNKILDGMSGLWCVAIGYGREELADAASKQMRELPYYNLFFQTAHPPVLELAKAISDIAPEGMNHVFFTGSGSEGNDTMLRMVRHYWALKGQPNKKTIISRVNGYHGSTVAGASLGGMTYMHEQGDLPIPGVVHIPQPYWFGEGGDMTPDEFGIWAAEQLEKKILELGVENVGAFIAEPIQGAGGVIVPPDSYWPKIKEILSRYDILFAADEVICGFGRTSEWFGSDFYGLRPDMMTIAKGLTSGYVPMGGLIVRDEIVAVLNEGGDFNHGFTYSGHPVAAAVALENIRILREEKIVERVRSETAPYLQKRLRELSDHPLVGEVRGVGLLGAIELVKDKTTRERYTDKGAGMICRTFCFDNGLIMRAVGDTMIIAPPLVISFAQIDELVEKARTCLDLTLAVLQG
modifications: N-terminal His tag
ω-transaminase activity for converting adipate semialdehyde to 6-aminohexanoate (formation of pyruvate from L-alanine) [2]: accepted adipate semialdehyde as substrate

ω-transaminase activity for converting 6-aminohexanoate to adipate semialdehyde (formation of L-alanine from pyruvate) [1]: accepted 6-aminohexanoate as substrate
B2: SEQ ID NO 7: Chromobacterium violaceum ω-transaminase, Genbank Accession No. AAQ59697.1, N-terminal HIS tagged (protein, listed as Chromobacterium violaceum)
chain: MQKQRTTSQWRELDAAHHLHPFTDTASLNQAGARVMTRGEGVYLWDSEGNKIIDGMAGLWCVNVGYGRKDFAEAARRQMEELPFYNTFFKTTHPAVVELSSLLAEVTPAGFDRVFYTNSGSESVDTMIRMVRRYWDVQGKPEKKTLIGRWNGYHGSTIGGASLGGMKYMHEQGDLPIPGMAHIEQPWWYKHGKDMTPDEFGVVAARWLEEKILEIGADKVAAFVGEPIQGAGGVIVPPATYWPEIERICRKYDVLLVADEVICGFGRTGEWFGHQHFGFQPDLFTAAKGLSSGYLPIGAVFVGKRVAEGLIAGGDFNHGFTYSGHPVCAAVAHANVAALRDEGIVQRVKDDIGPYMQKRWRETFSRFEHVDDVRGVGMVQAFTLVKNKAKRELFPDFGEIGTLCRDIFFRNNLIMRACGDHIVSAPPLVMTRAEVDEMLAVAERCLEEFEQTLKARGLA
modifications: N-terminal His tag
ω-transaminase activity for converting adipate semialdehyde to 6-aminohexanoate (formation of pyruvate from L-alanine) [2]: accepted adipate semialdehyde as substrate

B3: SEQ ID NO 6: Segniliparus rotundus carboxylate reductase, Genbank Accession No. ADG98140.1, N-terminal HIS tagged (protein, listed as Segniliparus rotundus)
chain: MTQSHTQGPQASAAHSRLARRAAELLATDPQAAATLPDPEVVRQATRPGLRLAERVDAILSGYADRPALGQRSFQTVKDPITGRSSVELLPTFDTITYRELRERATAIASDLAHHPQAPAKPGDFLASIGFISVDYVAIDIAGVFAGLTAVPLQTGATLATLTAITAETAPTLFAASIEHLPTAVDAVLATPSVRRLLVFDYRAGSDEDREAVEAAKRKIADAGSSVLVDVLDEVIARGKSAPKAPLPPATDAGDDSLSLLIYTSGSTGTPKGAMYPERNVAHFWGGVWAAAFDEDAAPPVPAINITFLPLSHVASRLSLMPTLARGGLMHFVAKSDLSTLFEDLKLARPTNLFLVPRVVEMLYQHYQSELDRRGVQDGTREAEAVKDDLRTGLLGGRILTAGFGSAPLSAELAGFIESLLQIHLVDGYGSTEAGPVWRDGYLVKPPVTDYKLIDVPELGYFSTDSPHPRGELAIKTQTILPGYYKRPETTAEVFDEDGFYLTGDVVAQIGPEQFAYVDRRKNVLKLSQGEFVTLAKLEAAYSSSPLVRQLFVYGSSERSYLLAVIVPTPDALKKFGVGEAAKAALGESLQKIARDEGLQSYEVPRDFIIETDPFTVENGLLSDARKSLRPKLKEHYGERLEAMYKELADGQANELRDIRRGVQQRPTLETVRRAAAAMLGASAAEIKPDAHFTDLGGDSLSALTFSNFLHDLFEVDVPVGVIVSAANTLGSVAEHIDAQLAGGRARPTFATVHGKGSTTIKASDLTLDKFIDEQTLEAAKHLPKPADPPRTVLLTGANGWLGRFLALEWLERLAPAGGKLITIVRGKDAAQAKARLDAAYESGDPKLAGHYQDLAATTLEVLAGDFSEPRLGLDEATWNRLADEVDFISHPGALVNHVLPYNQLFGPNVAGVAEIIKLAITTRIKPVTYLSTVAVAAGVEPSALDEDGDIRTVSAERSVDEGYANGYGNSKWGGEVLLREAHDRTGLPVRVFRSDMILAHQKYTGQVNATDQFTRLVQSLLATGLAPKSFYELDAQGNRQRAHYDGIPVDFTAESITTLGGDGLEGYRSYNVFNPHRDGVGLDEFVDWLIEAGHPITRIDDYDQWLSRFETSLRGLPESKRQASVLPLLHAFARPGPAVDGSPFRNTVFRTDVQKAKIGAEHDIPHLGKALVLKYADDIKQLGLL
modifications: N-terminal His tag
carboxylate reductase activity for converting adipate semialdehyde to hexanedial (consumption of NADPH, absorbance at 340 nm) [3]: accepted adipate semialdehyde as substrate

B4: SEQ ID NO 8: Pseudomonas aeruginosa ω-transaminase, Genbank Accession No. AAG08191.1, N-terminal HIS tagged (protein, listed as Pseudomonas aeruginosa)
chain: MNARLHATSPLGDADLVRADQAHYMHGYHVFDDHRVNGSLNIAAGDGAYIYDTAGNRYLDAVGGMWCTNIGLGREEMARTVAEQTRLLAYSNPFCDMANPRAIELCRKLAELAPGDLDHVFLTTGGSTAVDTAIRLMHYYQNCRGKRAKKHVITRINAYHGSTFLGMSLGGKSADRPAEFDFLDERIHHLACPYYYRAPEGLGEAEFLDGLVDEFERKILELGADRVGAFISEPVFGSGGVIVPPAGYHRRMWELCQRYDVLYISDEVVTSFGRLGHFFASQAVFGVQPDIILTAKGLTSGYQPLGACIFSRRIWEVIAEPDKGRCFSHGFTYSGHPVACAAALKNIEIIEREGLLAHADEVGRYFEERLQSLRDLPIVGDVRGMRFMACVEFVADKASKALFPESLNIGEWVHLRAQKRGLLVRPIVHLNVMSPPLILTREQVDTVVRVLRESIEETVEDLVRAGHR
modifications: N-terminal His tag
ω-transaminase activity for converting adipate semialdehyde to 6-aminohexanoate (formation of pyruvate from L-alanine) [2]: accepted adipate semialdehyde as substrate

ω-transaminase activity for converting 6-aminohexanoate to adipate semialdehyde (formation of L-alanine from pyruvate) [1]: accepted 6-aminohexanoate as substrate
B5: SEQ ID NO 12: Vibrio fluvialis ω-transaminase, Genbank Accession No. AEA39183.1, N-terminal HIS tagged (protein, listed as Vibrio fluvialis)
chain: MNKPQSWEARAETYSLYGFTDMPSLHQRGTVVVTHGEGPYIVDVNGRRYLDANSGLWNMVAGFDHKGLIDAAKAQYERFPGYHAFFGRMSDQTVMLSEKLVEVSPFDSGRVFYTNSGSEANDTMVKMLWFLHAAEGKPQKRKILTRWNAYHGVTAVSASMTGKPYNSVFGLPLPGFVHLTCPHYWRYGEEGETEEQFVARLARELEETIQREGADTIAGFFAEPVMGAGGVIPPAKGYFQAILPILRKYDIPVISDEVICGFGRTGNTWGCVTYDFTPDAIISSKNLTAGFFPMGAVILGPELSKRLETAIEAIEEFPHGFTASGHPVGCAIALKAIDVVMNEGLAENVRRLAPRFEERLKHIAERPNIGEYRGIGFMWALEAVKDKASKTPFDGNLSVSERIANTCTDLGLICRPLGQSVVLCPPFILTEAQMDEMFDKLEKALDKVFAEVA
modifications: N-terminal His tag
ω-transaminase activity for converting adipate semialdehyde to 6-aminohexanoate (formation of pyruvate from L-alanine) [2]: accepted adipate semialdehyde as substrate

From patent publication US20160152957A1, “Methods of Producing 6-Carbon Monomers From 8-Carbon Compounds” (INVISTA North America S.á.r.l., priority 2014, published 2016)
